# The supplement of paper PMC10724198
# ± gives the standard deviation of the averaged measurements.
# Tested on: Saccharomyces cerevisiae
# Assay: protein stability index of tFT-peptide fusion (C-terminal peptide) (PSI (0-1 scale)); higher = more stable (slower turnover)
# Settings: genetic background: wild type; temperature: 30 C
# 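Note: PSI is a weighted mean of sequencing reads over stability bins, variants kept only with over 10 reads, mCherry proximal and sfGFP distal, peptide attached via GGGS linker.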
row,Sequence,protein stability index
1,PARPLFAPSFFT,0.699 ± 0.047
2,PASSAPLSLLPC,0.655 ± 0.084
3,PASSSFVCAVSR,0.783 ± 0.091
4,PATRHSRLPPAS,0.67 ± 0.018
5,PATRIDAFPPVP,0.685 ± 0.022
6,PAVARPLGPPPY,0.714 ± 0.045
7,PAVRGEMYLGVG,0.685 ± 0.014
8,PCAFSLPPLQIP,0.7 ± 0.012
9,PCGGGGRECVRG,0.808 ± 0.1
10,PCLPPPLRLPPN,0.631 ± 0.054
11,PCLVLSLYSDLP,0.68 ± 0.032
12,PCPPAPPRFLLR,0.732 ± 0.016
13,PCPPRSLPPPTS,0.835 ± 0.16
14,PCSSFPTFPRRL,0.715 ± 0.017
15,PCVCLRWTGKAF,0.532 ± 0.031
16,PCVPSRTISLPE,0.684 ± 0.031
17,PDGGFSSVVSLR,0.686 ± 0.076
18,PDRQNLSRPEKD,0.702 ± 0.0092
19,PDRSLASPPTTR,0.711 ± 0.069
20,PDSLCLSPPSLP,0.686 ± 0.017
21,PDTCRYTAFHFH,0.586 ± 0.02
22,PDVFLLHASPPG,0.66 ± 0.098
23,PEKRDIQSGIVD,0.696 ± 0.024
24,PFALADSDGDSK,0.683 ± 0.059
25,PFFLSFPPSALL,0.741 ± 0.021
26,PFFRAPTRPSVF,0.716 ± 0.043

row,Sequence,protein stability index
1,PFLSLPLSPPPP,0.71 ± 0.092
2,PFPLPPPPSPTP,0.699 ± 0.03
3,PFPPLPLPLPLP,0.7123 ± 0.00013
4,PFPRPWRPLPTS,0.7 ± 0.044
5,PFPSPSPLARLP,0.704 ± 0.054
6,PFSLSLPPPPLP,0.73 ± 0.026
7,PFSPLPGPPPPP,0.733 ± 0.04
8,PFSPPPSTQPSY,0.754 ± 0.15
9,PFSSPPPPCRSC,0.718 ± 0.023
10,PFSSVFNPGVLS,0.644 ± 0.017
11,PFSVCVSSSLCG,0.665 ± 0.0076
12,PFTHRTYREGRT,0.676 ± 0.081
13,PFVIFHSCFSLV,0.543 ± 0.011
14,PGALLPALPPPP,0.71 ± 0.016
15,PGFTLLDFCLYH,0.725 ± 0.0091
16,PGFVGPWAGGGA,0.735 ± 0.12
17,PGGAGKAYGSRL,0.707 ± 0.012
18,PGGLVVGAGRED,0.709 ± 0.033
19,PGIAVPTGTSYV,0.617 ± 0.06
20,PGIVTGCGNTFV,0.708 ± 0.022
21,PGNKHYRARNGA,0.678 ± 0.013
22,PGPKAAHSKRDR,0.662 ± 0.058
23,PGPPFPMANTPF,0.646 ± 0.048
24,PGRVAGGCGVLG,0.64419 ± 0.00049
25,PGRYTDCCLPNR,0.682 ± 0.022
26,PGSLRGATRPNQ,0.739 ± 0.17

row,Sequence,protein stability index
1,PGTVQVGFDIQV,0.717 ± 0.018
2,PGWHLDPITALP,0.712 ± 0.027
3,PHAEESNSTLSP,0.765 ± 0.12
4,PHLAPPPGPLHP,0.7233 ± 0.0024
5,PHLEVPARPRGT,0.7148 ± 0.0042
6,PHLPSPRPRPPP,0.722 ± 0.012
7,PHMRSPTPLLRP,0.697 ± 0.077
8,PHNPTFSPPTCP,0.751 ± 0.027
9,PHPAPRRPPLPP,0.687 ± 0.05
10,PHPRHQPNLRPT,0.664 ± 0.024
11,PHPRPPPLSFAP,0.681 ± 0.035
12,PHPSPRGTPCPT,0.646 ± 0.021
13,PHRPSPPIPLSV,0.662 ± 0.043
14,PHRSRPPPTPPV,0.625 ± 0.061
15,PHSSSLSPCPSL,0.687 ± 0.013
16,PHTHPPASLPPV,0.638 ± 0.033
17,PHWGKRINEAHT,0.6851 ± 0.0029
18,PHYPQSHPADPV,0.668 ± 0.016
19,PIATTSVDAGRS,0.634 ± 0.019
20,PICCPLILTRSL,0.706 ± 0.019
21,PIHCTVMGATTC,0.657 ± 0.073
22,PIPPLPSSRLGV,0.602 ± 0.037
23,PIPRAASPLLPM,0.588 ± 0.007
24,PISAGGGVVWVE,0.6491 ± 0.0047
25,PITSPPQVLLQH,0.686 ± 0.033
26,PKTKKEKQKKKV,0.704 ± 0.034

row,Sequence,protein stability index
1,PLCVFHYSSDDY,0.705 ± 0.054
2,PLESRPHNAHQR,0.663 ± 0.09
3,PLFAPLTPPLPP,0.734 ± 0.033
4,PLFLHSAHVSPI,0.712 ± 0.071
5,PLFPPASVVVLY,0.663 ± 0.036
6,PLFSASLFSLSL,0.747 ± 0.068
7,PLFSPPFLPFSL,0.711 ± 0.028
8,PLGQVLRVSSDF,0.75473 ± 0.00037
9,PLGVGLVDGEAP,0.715 ± 0.072
10,PLHPPPPPPPHP,0.717 ± 0.064
11,PLHSLPSRTPPS,0.7088 ± 0.006
12,PLHSTPRPPAPG,0.706 ± 0.098
13,PLIDRKIKKAIQ,0.705 ± 0.069
14,PLISYIEGGPTS,0.674 ± 0.02
15,PLLAQSALFVIA,0.5904 ± 0.0055
16,PLLHPTGFMGFP,0.74 ± 0.028
17,PLLLLLPPPPSP,0.674 ± 0.033
18,PLLLPPLPRTPF,0.622 ± 0.0066
19,PLLPLSFRIPPF,0.702 ± 0.014
20,PLLPPALCPFPP,0.685 ± 0.029
21,PLLPPPGALFLL,0.718 ± 0.057
22,PLLPSFPPPPAP,0.51 ± 0.014
23,PLLPSGIPLFLS,0.574 ± 0.016
24,PLLRLVPVPSVI,0.5537 ± 0.0025
25,PLLSAFPPRPFP,0.682 ± 0.12
26,PLLSSPAHPLPP,0.687 ± 0.053

row,Sequence,protein stability index
1,PLMKHSHSSLPF,0.7016 ± 0.0043
2,PLPEQIEATTAS,0.6921 ± 0.00086
3,PLPFPPPLPSHR,0.767 ± 0.11
4,PLPHPPRPLPPH,0.717 ± 0.015
5,PLPLLSLPRFPL,0.753 ± 0.1
6,PLPLPFGPPSLP,0.753 ± 0.15
7,PLPLPLPQTLPP,0.6958 ± 0.0067
8,PLPLPPPFILPT,0.646 ± 0.052
9,PLPPHAPPNSAP,0.656 ± 0.079
10,PLPPIPPSTPST,0.726 ± 0.017
11,PLPPLPPTAPPP,0.686 ± 0.015
12,PLPPLSSPRPPP,0.711 ± 0.071
13,PLPPPGPPRLSR,0.723 ± 0.0075
14,PLPPPHSPPPSA,0.677 ± 0.011
15,PLPPPPPLPFHL,0.79 ± 0.095
16,PLPPPPPPPPPT,0.681 ± 0.023
17,PLPPPPPPPSPS,0.835 ± 0.11
18,PLPPPPRPPLRP,0.6941 ± 0.0052
19,PLPPPSPSTPPP,0.796 ± 0.065
20,PLPPPVFLLFPL,0.667 ± 0.051
21,PLPPRPCCLPRP,0.644 ± 0.098
22,PLPRAPSPPPPP,0.694 ± 0.023
23,PLPRFLTLTLSQ,0.652 ± 0.023
24,PLPRLPSSLSRP,0.697 ± 0.023
25,PLPSARPPPLPS,0.685 ± 0.011
26,PLPSLPPPPPPL,0.661 ± 0.076

row,Sequence,protein stability index
1,PLPSPDLPLTHH,0.679 ± 0.025
2,PLPSPRLRFLVP,0.653 ± 0.036
3,PLPSVPESPAPP,0.693 ± 0.045
4,PLRAPPHPPPVP,0.623 ± 0.048
5,PLRPPCPLPPRT,0.6031 ± 0.0056
6,PLRPQALDPFLY,0.6835 ± 0.0028
7,PLRPSSPLPPPL,0.71 ± 0.021
8,PLSNAPRPSQVA,0.736 ± 0.056
9,PLSPPHRLTAAL,0.756 ± 0.19
10,PLSPPPPPPPPL,0.707 ± 0.018
11,PLSPSCCLRRPL,0.777 ± 0.24
12,PLSPSLPNPCSL,0.706 ± 0.0079
13,PLSPSPPPASLL,0.702 ± 0.018
14,PLSPTSPLPSPA,0.6779 ± 0.0039
15,PLSQLPAFSPVS,0.687 ± 0.0095
16,PLSTPPPLLLTP,0.719 ± 0.12
17,PLSYRRFTRLPR,0.68 ± 0.066
18,PLTEELCFSAWG,0.734 ± 0.031
19,PLTFSFPVRVCD,0.537 ± 0.028
20,PLTPPPALILFP,0.693 ± 0.022
21,PLTPSPRPPPPS,0.615 ± 0.15
22,PLTVPLPSPRLI,0.645 ± 0.1
23,PLVPRCFVPPVI,0.657 ± 0.023
24,PLWCLPSLPPPF,0.797 ± 0.031
25,PLWEYGCLFASS,0.718 ± 0.03
26,PLWLPPTPMQII,0.62 ± 0.013

row,Sequence,protein stability index
1,PLYHPSESYNPA,0.678 ± 0.016
2,PLYSLVSPPYAT,0.651 ± 0.019
3,PMLSDVPTHSIS,0.719 ± 0.039
4,PMPPPHLLPSSS,0.723 ± 0.024
5,PMSPCPTRSINA,0.702 ± 0.031
6,PMVLLDTIQRHT,0.721 ± 0.033
7,PNHGEYRNGLYV,0.715 ± 0.11
8,PNLKKHFRADEP,0.6832 ± 0.0036
9,PNLSPPTPLSAD,0.649 ± 0.018
10,PPAAAPPSPPPL,0.663 ± 0.0036
11,PPAAPPPQPHLT,0.696 ± 0.032
12,PPAEPLRLHAHA,0.709 ± 0.054
13,PPALRSPCPSHP,0.747 ± 0.14
14,PPAPLAPPPAGC,0.67 ± 0.038
15,PPAPLPQSAPTR,0.645 ± 0.038
16,PPAPPLFVSSPG,0.684 ± 0.048
17,PPAPPPRLPSPP,0.713 ± 0.098
18,PPAPSPPPPPPP,0.622 ± 0.055
19,PPAPYPPFPLEL,0.821 ± 0.078
20,PPCLYPFPPPSR,0.661 ± 0.017
21,PPCPPPPPVLPT,0.66722 ± 0.00014
22,PPDAPPMPPPQH,0.738 ± 0.083
23,PPDYPAPPPPPL,0.695 ± 0.034
24,PPEPSYPPLPPR,0.717 ± 0.011
25,PPGPPPPPAPPL,0.724 ± 0.062
26,PPGVTPLSLCAC,0.534 ± 0.0088

row,Sequence,protein stability index
1,PPHAPKPPPTAA,0.588 ± 0.077
2,PPHLSPPPPPLL,0.6987 ± 0.0054
3,PPHPFPPPPPPS,0.665 ± 0.069
4,PPHPHNPRPSTP,0.6548 ± 0.0046
5,PPHPPPLLPFSI,0.764 ± 0.009
6,PPIFPSPPPPAD,0.61 ± 0.011
7,PPILLAYITPPM,0.656 ± 0.0076
8,PPIRLPSPLLPH,0.7123 ± 0.0056
9,PPKPAQPPTPSP,0.693 ± 0.075
10,PPLAPPTPHPLS,0.716 ± 0.029
11,PPLEHPGIAGGR,0.644 ± 0.1
12,PPLFPPLAPLHR,0.72 ± 0.032
13,PPLFSSTNKNPR,0.664 ± 0.0076
14,PPLLAPPTPLPQ,0.674 ± 0.051
15,PPLLLRFLTIHL,0.571 ± 0.027
16,PPLLPLLCPHSL,0.738 ± 0.016
17,PPLLPTPRPPPP,0.65 ± 0.037
18,PPLLRSPPPLSP,0.675 ± 0.022
19,PPLNPHPPAPTP,0.724 ± 0.032
20,PPLPAPPPPFPP,0.59 ± 0.022
